{"source": "patent US9150655B2", "about": "“Anti-C-met antibody and methods of use thereof” (ACADEMIA SINICA, priority 2010, dated 2015)", "key": {"[1]": {"target": "T1, 293T cells ectopically expressing human c-Met (Homo sapiens, UniProt P08581)", "T1 construct": "The DNA encoding full-length c-Met was amplified by PCR; expressed in transfected cells; host or cells: 293T cells transfected with pEF-c-Met expression vector", "experiment": "Phage binding to c-Met-overexpressing 293T cells (flow cytometry, immunofluorescence)", "assay_type": "cell-based", "settings": "293T overexpressing c-Met vs 293T; flow cytometry and immunofluorescence", "procedure": "For immunofluorescence staining assay, 293T cells were grown on coverslips to 80% confluence. Transfection of the cells with pEF-c-Met expression vector was performed using Lipofectamin 2000 (Invitrogen) according to manufacturer's instructions. At 48 hrs post-transfection, the cells were incubated with the selected anti-c-Met phage or control phage, by 1×10^10 phage titer for 30 min at 4° C. After the cells were washed twice with PBS, they were fixed by 4% paraformaldehyde, permeabilized with 0.1% TritonX-100 and blocked with 3% BSA. […] The fluorescence images were captured by inverted fluorescence microscope (Axiovert 200M, Zeiss).\nFor flow cytometry analysis, 293T cells were grown to 80% confluence and transfected with pEF-c-Met expression vector as described above. […] Analysis was performed using FACSCantoll (BD) and emission fluorescence intensity was measured by FACSDiva software (BD) to quantitatively compare their binding affinities\nTo examine the specificity and binding affinity of the three phage clones, a comparative ELISA using the same phage titer was performed. […] The three clones were assessed for binding to cell-surface c-Met by flow cytometry and immunofluorescence assay using 293T cells ectopically expressing human c-Met. […]"}, "c-Met-Fc protein": {"target": "T2, c-Met-Fc protein (Homo sapiens, UniProt P08581)", "T2 construct": "Fc; purchased R&D", "T2 sequence (P08581 with tags, fused parts or gaps limits assumed)": "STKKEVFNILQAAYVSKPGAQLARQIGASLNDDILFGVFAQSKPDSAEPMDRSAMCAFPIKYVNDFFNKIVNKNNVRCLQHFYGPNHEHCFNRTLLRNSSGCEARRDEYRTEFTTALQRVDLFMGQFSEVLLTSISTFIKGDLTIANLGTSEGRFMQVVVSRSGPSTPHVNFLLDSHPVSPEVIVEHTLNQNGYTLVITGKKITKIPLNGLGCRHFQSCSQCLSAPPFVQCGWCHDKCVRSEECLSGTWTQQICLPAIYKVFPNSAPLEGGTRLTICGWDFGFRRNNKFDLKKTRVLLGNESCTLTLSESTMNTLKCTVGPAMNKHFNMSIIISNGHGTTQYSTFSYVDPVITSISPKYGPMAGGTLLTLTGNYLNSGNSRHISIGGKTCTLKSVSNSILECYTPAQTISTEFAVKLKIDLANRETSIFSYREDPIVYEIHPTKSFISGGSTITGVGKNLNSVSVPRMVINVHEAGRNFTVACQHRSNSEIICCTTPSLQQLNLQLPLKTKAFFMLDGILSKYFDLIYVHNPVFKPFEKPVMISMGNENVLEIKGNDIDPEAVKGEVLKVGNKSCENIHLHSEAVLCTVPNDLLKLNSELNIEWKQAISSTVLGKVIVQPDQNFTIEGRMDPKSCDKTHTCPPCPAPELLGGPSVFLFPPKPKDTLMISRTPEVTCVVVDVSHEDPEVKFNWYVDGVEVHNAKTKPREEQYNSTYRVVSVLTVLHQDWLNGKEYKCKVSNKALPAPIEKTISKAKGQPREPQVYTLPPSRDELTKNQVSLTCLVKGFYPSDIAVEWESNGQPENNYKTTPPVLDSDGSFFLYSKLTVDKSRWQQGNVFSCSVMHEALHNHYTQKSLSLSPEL", "T2 sequence (P08581 25-307 limits assumed)": "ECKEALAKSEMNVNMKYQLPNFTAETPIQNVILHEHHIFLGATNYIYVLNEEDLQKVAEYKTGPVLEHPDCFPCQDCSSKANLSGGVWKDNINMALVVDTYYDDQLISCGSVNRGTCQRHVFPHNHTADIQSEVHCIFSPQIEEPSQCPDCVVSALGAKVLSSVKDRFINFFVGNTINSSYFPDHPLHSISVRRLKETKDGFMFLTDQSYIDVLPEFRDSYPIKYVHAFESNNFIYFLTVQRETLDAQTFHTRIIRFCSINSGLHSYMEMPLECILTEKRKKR", "experiment": "Phage ELISA for binding to c-Met-Fc protein", "settings": "same phage titer", "procedure": "Selection of phages displaying specific anti-c-Met scFv was performed by protein G dynabeads (Invitrogen). c-Met-Fc recombinant protein (R&D) was incubated with protein G dynabeads at room temperature (RT) for 1 hr. The scFv library (2×10^9 members) was subtracted non-specific binding in protein G dynabeads and subsequently incubated with c-Met-Fc immobilized dynabeads for 1 hr at 4° C. Unbound phages were removed by washing 4 times with PBST. The phages that bound to c-Met-Fc were recovered by infection with E. coli TG1 cells at 37° C. for 30 min. Part of the infected cells were serial diluted to determine titer, and the others were rescued by M13KO7 helper phage (NEB). […]\nTo examine the specificity and binding affinity of the three phage clones, a comparative ELISA using the same phage titer was performed. […] The three clones were assessed for binding to cell-surface c-Met by flow cytometry and immunofluorescence assay using 293T cells ectopically expressing human c-Met. […] Soluble anti-c-Met scFvs were purified from periplasmic extract of phage-infected E-coli HB2151 by protein L agarose chromatography, and then assessed by coomassie blue staining representing purified anti-c-Met scFv proteins (S1, S20 and S21) localized in vicinity of 30 kDa corresponding to protein weight marker (upper panel of FIG. 8, panel B)."}, "[2]": {"target": "T3, c-Met expressed on H1993 cells (Homo sapiens, UniProt P08581)", "T3 construct": "H1993 is known to express a high level of c-Met; endogenous in cells; host or cells: H1993", "experiment": "Competition ELISA: phage clones inhibit HGF binding to H1993 cells", "settings": "phage-displayed scFv; HGF binding without competitors = 100%", "procedure": "(§1) To test whether the three anti-c-Met scFvs could inhibit HGF binding to c-Met, the human lung cancer cell line H1993 was chosen to undergo competition ELISA (Lutterbach B et al. (2007) Cancer Res 67:2081-2088). […] HGF binding to H1993 cells without competitors was considered 100%. H1993 is known to express a high level of c-Met. When H1993 cells were incubated with HGF in the presence of the phage clones, the binding of HGF to H1993 cells was diminished by more than 90% by the anti-c-Met scFv PC1. PC20 inhibited more than 50% of HGF binding to c-Met (FIG. 2, panel A). The competitive inhibition of HGF by different concentrations of soluble scFvs was also tested. Normal mouse IgG (NMIgG) was used as a negative control. HGF binding to immobilized c-Met protein without competitors was considered 100%."}, "[3]": {"target": "T4, endogenous c-Met in cancer cells (Homo sapiens, UniProt P08581)", "T4 construct": "endogenous in cells", "T4 sequence (P08581 25-1390)": "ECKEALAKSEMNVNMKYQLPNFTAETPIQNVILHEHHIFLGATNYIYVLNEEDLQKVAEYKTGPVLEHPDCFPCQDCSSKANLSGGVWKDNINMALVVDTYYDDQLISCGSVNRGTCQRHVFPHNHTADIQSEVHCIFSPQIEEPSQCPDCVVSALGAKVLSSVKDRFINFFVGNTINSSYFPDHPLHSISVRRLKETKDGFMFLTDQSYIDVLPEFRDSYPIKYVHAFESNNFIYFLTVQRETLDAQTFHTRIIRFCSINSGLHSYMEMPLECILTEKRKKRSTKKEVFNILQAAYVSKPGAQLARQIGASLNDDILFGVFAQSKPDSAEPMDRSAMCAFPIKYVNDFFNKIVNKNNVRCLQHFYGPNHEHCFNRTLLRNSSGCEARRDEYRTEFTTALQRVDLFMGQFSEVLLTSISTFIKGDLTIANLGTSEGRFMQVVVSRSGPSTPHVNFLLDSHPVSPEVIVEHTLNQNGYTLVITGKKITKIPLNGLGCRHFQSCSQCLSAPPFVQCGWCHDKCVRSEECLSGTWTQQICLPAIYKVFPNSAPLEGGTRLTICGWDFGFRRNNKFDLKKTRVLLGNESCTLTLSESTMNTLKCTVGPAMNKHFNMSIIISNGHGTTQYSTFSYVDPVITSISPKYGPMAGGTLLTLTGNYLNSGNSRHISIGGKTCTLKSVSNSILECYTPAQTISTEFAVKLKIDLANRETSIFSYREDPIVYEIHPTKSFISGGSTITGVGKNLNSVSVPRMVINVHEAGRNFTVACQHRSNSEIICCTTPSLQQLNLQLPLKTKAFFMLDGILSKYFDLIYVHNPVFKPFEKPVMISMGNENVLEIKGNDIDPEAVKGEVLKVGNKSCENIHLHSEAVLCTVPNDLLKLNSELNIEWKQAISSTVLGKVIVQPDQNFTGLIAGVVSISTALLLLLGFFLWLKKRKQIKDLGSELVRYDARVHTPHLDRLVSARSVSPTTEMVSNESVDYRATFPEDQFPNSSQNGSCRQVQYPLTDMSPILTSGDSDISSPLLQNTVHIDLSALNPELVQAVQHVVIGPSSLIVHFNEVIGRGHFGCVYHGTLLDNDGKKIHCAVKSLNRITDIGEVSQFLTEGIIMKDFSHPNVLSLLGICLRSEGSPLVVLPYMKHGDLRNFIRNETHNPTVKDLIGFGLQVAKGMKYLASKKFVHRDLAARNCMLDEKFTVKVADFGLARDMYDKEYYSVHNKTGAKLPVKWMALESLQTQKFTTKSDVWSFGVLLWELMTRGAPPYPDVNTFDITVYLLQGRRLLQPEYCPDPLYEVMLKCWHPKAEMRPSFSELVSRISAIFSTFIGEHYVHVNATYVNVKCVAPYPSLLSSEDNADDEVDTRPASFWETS", "experiment": "ELISA of scFv binding to human cancer cell lines", "assay_type": "cell-based", "procedure": "(§2) The binding activities of anti-c-Met scFvs to endogenous c-Met were analyzed in cancer cells by ELISA (FIG. 9, panel A). […] Normal mouse IgG was used as a control antibody. FACS analysis was performed to verify that […] anti-c-Met scFvs also bound VEGF-stimulated HUVECs. Anti-CD31 antibody and control scFv were used a positive and negative control, respectively (FIG. 9, panel B)."}, "c-Met932-Fc protein": {"target": "T5, c-Met932-Fc protein (Homo sapiens, UniProt P08581)", "T5 construct": "DNA fragments encoding amino acid residues 1 to 932 and 1 to 567 of c-Met were amplified by PCR; made in house; host or cells: 293T cells, transient transfection, protein G purification from supernatant", "T5 sequence (P08581 25-307)": "as the sequence (P08581 25-307 limits assumed) above", "T5 sequence (P08581 308-932)": "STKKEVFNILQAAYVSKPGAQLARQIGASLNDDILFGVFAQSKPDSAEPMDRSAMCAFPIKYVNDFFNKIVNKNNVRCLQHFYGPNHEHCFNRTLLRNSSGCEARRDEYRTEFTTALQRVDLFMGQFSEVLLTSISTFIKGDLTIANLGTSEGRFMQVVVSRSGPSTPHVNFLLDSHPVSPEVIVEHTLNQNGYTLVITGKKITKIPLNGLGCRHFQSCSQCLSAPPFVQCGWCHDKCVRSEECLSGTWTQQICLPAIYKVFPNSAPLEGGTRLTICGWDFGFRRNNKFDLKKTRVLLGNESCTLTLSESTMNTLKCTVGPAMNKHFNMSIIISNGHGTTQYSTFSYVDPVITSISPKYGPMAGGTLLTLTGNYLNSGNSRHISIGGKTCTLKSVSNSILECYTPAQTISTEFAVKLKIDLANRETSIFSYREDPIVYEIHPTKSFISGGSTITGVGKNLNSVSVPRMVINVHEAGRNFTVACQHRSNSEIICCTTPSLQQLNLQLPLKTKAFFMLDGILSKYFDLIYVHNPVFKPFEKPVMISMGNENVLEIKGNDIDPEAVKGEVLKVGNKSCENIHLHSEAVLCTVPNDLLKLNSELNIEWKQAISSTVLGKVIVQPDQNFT", "experiment": "Binding kinetics of anti-c-Met scFv by SPR (BIAcore)", "procedure": "The affinity and kinetics of anti-c-Met scFv were measured by SRP in BIAcore X (GE healthcare). In BIAcore flowcell, 30 μg/ml of c-MetF932-Fc protein was coupled to EDC- and NHS-activated CM5 sensor chip followed by blocking with ethanolamine according to manufacturer's directions. Associated and dissociated phases were monitored for 3 and 5 min, respectively, under continuous flow of 30 μl/min using scFv concentrations ranging 5 to 200 nM. Regeneration was performed by injection of regenerate buffer (0.2 M NaCl, 10 mM glycine, pH 2.7). To determine binding constants, the sensorgrams were fit globally to a sample 1:1 interaction model using BIAevaluation software (GE healthcare).\nBinding kinetic constants (Kon and Koff) and affinity of each soluble scFv for c-Met932-Fc protein were measured by Surface Plasmon Resonance (SPR).\nKon and Koff were measured by SRP in a BIAcore using purified scFvs, and the Kd was calculated by BIAevaluation software."}, "VEGF-stimulated HUVECs": {"tested_on": "VEGF-stimulated HUVECs", "experiment": "FACS of scFv binding to VEGF-stimulated HUVECs", "assay_type": "cell-based, human", "procedure": "as §2"}, "[4]": {"target": "T6, endogenous c-Met on H460 cells (Homo sapiens, UniProt P08581)", "T6 construct": "endogenous in cells; host or cells: H460 and MET-KD H460", "T6 sequence (P08581 25-1390)": "as the sequence (P08581 25-1390) above", "experiment": "FACS of scFv binding to H460 and c-Met knockdown H460 cells", "assay_type": "cell-based", "procedure": "To further confirm that the anti-c-Met scFv would bind specifically to endogenous c-Met on human cancer cells, H460 cells and c-Met knockdown H460 cells were stained with anti-c-Met scFv, either S1 or S20, and FACS analysis was carried out (FIG. 10, panel B)."}, "c-Met567-Fc protein": {"target": "T7, c-Met567-Fc protein (Homo sapiens, UniProt P08581)", "T7 construct": "DNA fragments encoding amino acid residues 1 to 932 and 1 to 567 of c-Met were amplified by PCR; made in house; host or cells: 293T cells, transient transfection, protein G purification from supernatant", "experiment": "Epitope ELISA on c-Met932-Fc and c-Met567-Fc", "assay_type": "binding", "settings": "immobilized recombinant proteins", "procedure": "Therefore, binding epitopes of anti-c-Met scFvs localized within HGF binding domain of c-Met were investigated. The binding ability of anti-c-Met scFvs was examined for c-Met932-Fc protein including whole extracellular domain of c-Met, and c-Met567-Fc protein containing Sema and PSI domain, both of which have been defined as HGF binding regions (FIG. 2, panel C). The c-Met recombinant proteins were immobilized on titer wells, and incubated with anti-c-Met scFvs. Anti-c-Met polyclonal antibody and anti-E tag antibody was used as a positive and negative control, respectively. […] The binding intensity of S1 for c-Met932-Fc was similar to that for c-Met567-Fc."}, "c-MetF932-Fc protein": {"target": "T8, c-MetF932-Fc protein (Homo sapiens, UniProt P08581)", "T8 construct": "DNA fragments encoding amino acid residues 1 to 932 and 1 to 567 of c-Met were amplified by PCR; made in house; host or cells: 293T cells, transient transfection, protein G purification from supernatant", "T8 sequence (P08581 25-307 limits assumed)": "as the sequence (P08581 25-307 limits assumed) above", "T8 sequence (P08581 308-932 limits assumed)": "as the sequence (P08581 308-932) above", "experiment": "Competitive ELISA: soluble scFv inhibit HGF binding to immobilized c-Met protein", "procedure": "To monitor inhibition effect of scFv, we coated the c-MetF932-Fc protein on a 96-well plate and blocked nonspecific binder with 3% BSA in PBS. 1 nM human HGF (R&D) plus varying concentrations of anti-c-Met scFv or normal mouse IgG were applied to the wells. The amount of HGF bound to c-Met was determined using goat anti-human HGF (R&D), following incubation of HRP-labeled mouse anti-goat IgG (Jackson ImmunoResearch) and OPD substrate (Sigma) plus H2O2. The absorbance was measured with 490 nm using a microplate reader. Inhibition percentage was calculated by the following equation: [(the absorbance of HGF bound without competitor)−(the absorbance of HGF bound with competitor)]/(the absorbance of HGF bound without competitor)×100%.\nas §1"}, "c-Met": {"target": "T9, c-Met (Homo sapiens, UniProt P08581)", "T9 construct": "endogenous in cells; host or cells: A549", "experiment": "HGF-induced c-Met phosphorylation in A549 cells (Western blot)", "assay_type": "cell-based", "settings": "A549 cells co-treated with HGF and S1 at 37° C. for 15 min; relative to cells without S1", "procedure": "Since the anti-c-Met scFv S1 presented superiorly competitive capability, whether S1 would antagonize HGF to activate c-Met in cancer cells was examined. A549 cells were co-treated with HGF and S1 at 37° C. for 15 min. Total cell lysate was subjected to Western blotting using anti-tyrosine-phosphorylated c-Met antibody and an antibody against the c-Met β-chain (c-Met). Quantification of phosphorylated c-Met was based on luminescence intensity and normalized with total c-Met."}, "[5]": {"settings": "purified scFv, c-MetF932-Fc on CM5 chip"}}}
{"molecule": "PC1: phage-displayed anti-c-Met scFv, phage clone 1 (protein, left off: large carriers) scFv: MAQVQLQQSGPGLVKPSQTLSLTCDISGDSVSSNSAAWNWIRQSPSRGLEWLGRTYYRSRWYNEYAVSVRGRISINAETSKNQFSLQLNSVTPEDTAIYYCARAGFCSGGNCYPGSEDAFDLWGQGTMVTVGGGGSGGGGSGGGGSDVVMTQSPPSLSVSVGDRVTITCRASQDITNDLNWYQQKPGKAPQLLIYHASELETGVPSRFSGSGFGTDFTLTISSLQPADIATYYCQQYDDLPLTFGGGTKVEIKR", "values": [{"measurement": "Binding to cellular c-Met on 293T cells", "setting": "[1]", "result": "higher than that of PC20 and PC21"}, {"measurement": "c-Met binding affinity in comparative ELISA", "setting": "c-Met-Fc protein", "result": "stronger c-Met binding affinity than either PC20 or PC21"}, {"measurement": "Inhibition of HGF binding to H1993 cells", "setting": "[2]", "result": "more than 90%"}]}
{"molecule": "S1: soluble anti-c-Met scFv corresponding to phage clone PC1; VH/VL sequences in Table 1 (protein, left off: small tags and cut ends) scFv: MAQVQLQQSGPGLVKPSQTLSLTCDISGDSVSSNSAAWNWIRQSPSRGLEWLGRTYYRSRWYNEYAVSVRGRISINAETSKNQFSLQLNSVTPEDTAIYYCARAGFCSGGNCYPGSEDAFDLWGQGTMVTVGGGGSGGGGSGGGGSDVVMTQSPPSLSVSVGDRVTITCRASQDITNDLNWYQQKPGKAPQLLIYHASELETGVPSRFSGSGFGTDFTLTISSLQPADIATYYCQQYDDLPLTFGGGTKVEIKR", "values": [{"measurement": "Reactivity with A498, U2OS and NNM cells", "setting": "[3]; A498, U2OS, NNM cells", "result": "did not react"}, {"measurement": "Binding to human cancer cell lines", "setting": "[3]; SKOV3, Mahlavu, SAS, PC3, MDA-MB-231, HCT116, Paca-2, NPC-TW04, H1993 cells, vs control antibody", "result": "found to bind"}, {"measurement": "Kd", "setting": "c-Met932-Fc protein; purified scFv 5 to 200 nM, c-MetF932-Fc coupled to CM5 chip, Kd calculated by BIAevaluation software", "result": 6.82, "unit": "nM"}, {"measurement": "Koff", "setting": "c-Met932-Fc protein; [5]", "result": 0.00134, "unit": "s⁻¹"}, {"measurement": "Kon", "setting": "c-Met932-Fc protein; [5]", "result": 215000, "unit": "M⁻¹ s⁻¹"}, {"measurement": "Binding to VEGF-stimulated HUVECs", "setting": "VEGF-stimulated HUVECs", "result": "bound"}, {"measurement": "Binding activity in c-Met knockdown H460 cells", "setting": "[4]; c-Met knockdown H460", "result": "dramatically decreased"}, {"measurement": "Binding to H460 cells", "setting": "[4]; c-Met wildtype H460", "result": "able to bind"}, {"measurement": "Binding to c-Met567-Fc compared to c-Met932-Fc", "setting": "c-Met567-Fc protein", "result": "similar"}, {"measurement": "IC50", "setting": "c-MetF932-Fc protein; 1 nM human HGF, immobilized c-Met protein, soluble scFv", "result": 27.4, "unit": "nM"}, {"measurement": "Inhibition of binding activity of HGF to c-Met", "setting": "c-MetF932-Fc protein; different concentrations of soluble scFv", "result": "dose-dependently inhibited"}, {"measurement": "Inhibition of HGF-induced c-Met phosphorylation", "setting": "c-Met", "result": 65.7, "unit": "%"}]}
